Assay results published in patent US20220048967A1 (published 2022).
Residue numbers refer to the chain shown, from its start. Numbered stars: 1 amine (or outer) side, 2 acyl side, 3 side chain; on linkers, the order of the positions; unused ones are H or OH. Square brackets hold non-standard residues; d marks the D form. Side chains are listed from the residue outwards. Ends that are not written are not given here. * marks the point of attachment. C20 diacid = O=C(O)CCCCCCCCCCCCCCCCCCC(=O)*; αMePhe(2-F) = C[C@](N)(Cc1ccccc1F)C(=O)O; γGlu = O=C(O)[C@H](CCC(=O)[*:2])N[*:1]; αMeF = C[C@](N)(Cc1ccccc1)C(=O)O; AEEA = NCCOCCOCC(=O)O; Aib = CC(C)(N)C(=O)O

T1: human gastric inhibitory peptide receptor (GIPR) (human, UniProt P48546 22-466)
T1 sequence (looked up): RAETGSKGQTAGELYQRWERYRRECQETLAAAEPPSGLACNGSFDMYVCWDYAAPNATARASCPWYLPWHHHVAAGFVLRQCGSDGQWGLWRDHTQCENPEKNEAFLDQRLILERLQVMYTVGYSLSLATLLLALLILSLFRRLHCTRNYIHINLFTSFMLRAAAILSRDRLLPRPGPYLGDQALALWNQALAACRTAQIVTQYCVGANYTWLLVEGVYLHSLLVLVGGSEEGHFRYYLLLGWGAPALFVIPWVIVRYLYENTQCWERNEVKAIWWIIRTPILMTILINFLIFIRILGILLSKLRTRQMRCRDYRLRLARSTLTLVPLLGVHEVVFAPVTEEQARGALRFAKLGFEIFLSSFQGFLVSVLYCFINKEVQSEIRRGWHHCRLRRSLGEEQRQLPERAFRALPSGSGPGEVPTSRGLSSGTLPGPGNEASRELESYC

B1: Example 154 (peptide)
peptide: Y[Aib]EGT[αMePhe(2-F)]TSDHSIXLDEKAQ[Aib]EFIEYLIEGGPSSGAPPPS-NH2
modifications: not fully specified (residues 13, 17); printed as Y-Aib-EGT-αMeF(2F)-TSDHSI-αMeF-LDEK((2-[2-(2-Amino-ethoxy)-ethoxy]-acetyl)2-(γ-Glu)-CO-(CH2)18-CO2H)AQ-Aib-EFIEYLIEGGPSSGAPPPS-NH2
B2: Example 159 (peptide)
peptide: Y[Aib]EGT[αMePhe(2-F)]TSD[αMeF]SIXLDEKAQ[Aib]EFIEYLIEGGPSSGAPPPS-NH2
modifications: not fully specified (residues 13, 17); printed as Y-Aib-EGT-αMeF(2F)-TSD-αMeF-SI-αMeF-LDEK((2-[2-(2-Amino-ethoxy)-ethoxy]-acetyl)2-(γ-Glu)-CO-(CH2)18-CO2H)AQ-Aib-EFIEYLIEGGPSSGAPPPS-NH2
B3: Example 162 (peptide)
peptide: Y[Aib]EGT[αMePhe(2-F)]TSDHSI[αMeF]LDEK([AEEA-AEEA-γGlu-γGlu-C20 diacid])AQ[Aib]TFI[dE]HLIEGGPSSG-NH2
modifications: N-terminus assumed
SMILES: CC[C@H](C)[C@H](NC(=O)[C@H](CC(C)C)NC(=O)[C@H](Cc1c[nH]cn1)NC(=O)[C@@H](CCC(=O)O)NC(=O)[C@@H](NC(=O)[C@H](Cc1ccccc1)NC(=O)[C@@H](NC(=O)C(C)(C)NC(=O)[C@H](CCC(N)=O)NC(=O)[C@H](C)NC(=O)[C@H](CCCCNC(=O)COCCOCCNC(=O)COCCOCCNC(=O)CC[C@H](NC(=O)CC[C@H](NC(=O)CCCCCCCCCCCCCCCCCCC(=O)O)C(=O)O)C(=O)O)NC(=O)[C@H](CCC(=O)O)NC(=O)[C@H](CC(=O)O)NC(=O)[C@H](CC(C)C)NC(=O)[C@](C)(Cc1ccccc1)NC(=O)[C@@H](NC(=O)[C@H](CO)NC(=O)[C@H](Cc1c[nH]cn1)NC(=O)[C@H](CC(=O)O)NC(=O)[C@H](CO)NC(=O)[C@@H](NC(=O)[C@](C)(Cc1ccccc1F)NC(=O)[C@@H](NC(=O)CNC(=O)[C@H](CCC(=O)O)NC(=O)C(C)(C)NC(=O)[C@@H](N)Cc1ccc(O)cc1)[C@@H](C)O)[C@@H](C)O)[C@@H](C)CC)[C@@H](C)O)[C@@H](C)CC)C(=O)N[C@@H](CCC(=O)O)C(=O)NCC(=O)NCC(=O)N1CCC[C@H]1C(=O)N[C@@H](CO)C(=O)N[C@@H](CO)C(=O)NCC(N)=O
B4: Example 163 (peptide)
peptide: H[Aib]EGT[αMePhe(2-F)]TSDYSI[αMeF]LDEK([AEEA-AEEA-γGlu-C20 diacid])AQ[Aib]EFIEYLIEGGPSSGAPPPS-NH2
modifications: N-terminus assumed
SMILES: CC[C@H](C)[C@H](NC(=O)[C@H](CC(C)C)NC(=O)[C@H](Cc1ccc(O)cc1)NC(=O)[C@H](CCC(=O)O)NC(=O)[C@@H](NC(=O)[C@H](Cc1ccccc1)NC(=O)[C@H](CCC(=O)O)NC(=O)C(C)(C)NC(=O)[C@H](CCC(N)=O)NC(=O)[C@H](C)NC(=O)[C@H](CCCCNC(=O)COCCOCCNC(=O)COCCOCCNC(=O)CC[C@H](NC(=O)CCCCCCCCCCCCCCCCCCC(=O)O)C(=O)O)NC(=O)[C@H](CCC(=O)O)NC(=O)[C@H](CC(=O)O)NC(=O)[C@H](CC(C)C)NC(=O)[C@](C)(Cc1ccccc1)NC(=O)[C@@H](NC(=O)[C@H](CO)NC(=O)[C@H](Cc1ccc(O)cc1)NC(=O)[C@H](CC(=O)O)NC(=O)[C@H](CO)NC(=O)[C@@H](NC(=O)[C@](C)(Cc1ccccc1F)NC(=O)[C@@H](NC(=O)CNC(=O)[C@H](CCC(=O)O)NC(=O)C(C)(C)NC(=O)[C@@H](N)Cc1c[nH]cn1)[C@@H](C)O)[C@@H](C)O)[C@@H](C)CC)[C@@H](C)CC)C(=O)N[C@@H](CCC(=O)O)C(=O)NCC(=O)NCC(=O)N1CCC[C@H]1C(=O)N[C@@H](CO)C(=O)N[C@@H](CO)C(=O)NCC(=O)N[C@@H](C)C(=O)N1CCC[C@H]1C(=O)N1CCC[C@H]1C(=O)N1CCC[C@H]1C(=O)N[C@@H](CO)C(N)=O
B5: Example 160 (peptide)
peptide: YXEGTXTSDXSIXLDEKAQXTFIXYLIEGGPSSGAPPPS
modifications: Y-Aib-EGT-αMeF(2F)-TSD-Aib-SI-αMeF-LDEK((2-[2-(2-Amino-ethoxy)-ethoxy]-acetyl)2-(γ-Glu)-CO-(CH2)18-CO2H)AQ-Aib-TFI-(D-Glu)-YLIEGGPSSGAPPPS-NH2
B6: Example 164 (peptide)
peptide: B5 peptide with X10H, E28X
modifications: Y-Aib-EGT-αMeF(2F)-TSDHSI-αMeF-LDEK((2-[2-(2-Amino-ethoxy)-ethoxy]-acetyl)2-(γ-Glu)-CO-(CH2)18-CO2H)AQ-Aib-TFI-(D-Glu)-YLI-(D-Glu)-GGPSSGAPPPS-NH2
B7: Example 153 (peptide)
peptide: Y[Aib]EGT[αMePhe(2-F)]TSDYSIXLDEKAQ[Aib]EFIHYLIEGGPSSGAPPPS-NH2
modifications: not fully specified (residues 13, 17); printed as Y-Aib-EGT-αMeF(2F)-TSDYSI-αMeF-LDEK((2-[2-(2-Amino-ethoxy)-ethoxy]-acetyl)2-(γ-Glu)-CO-(CH2)18-CO2H)AQ-Aib-EFIHYLIEGGPSSGAPPPS-NH2
B8: Example 152 (peptide)
peptide: Y[Aib]EGT[αMePhe(2-F)]TSDYSIXLDEKAQ[Aib]EFI[Aib]YLIEGGPSSGAPPPS-NH2
modifications: not fully specified (residues 13, 17); printed as Y-Aib-EGT-αMeF(2F)-TSDYSI-αMeF-LDEK((2-[2-(2-Amino-ethoxy)-ethoxy]-acetyl)2-(γ-Glu)-CO-(CH2)18-CO2H)AQ-Aib-EFI-Aib-YLIEGGPSSGAPPPS-NH2
B9: Example 161 (peptide)
peptide: Y[Aib]EGT[αMePhe(2-F)]TSDHSI[αMeF]LDEK([AEEA-AEEA-γGlu-γGlu-C20 diacid])AQ[Aib]TFI[dE]YLIEGGPSSG-NH2
modifications: N-terminus assumed
SMILES: CC[C@H](C)[C@H](NC(=O)[C@H](CC(C)C)NC(=O)[C@H](Cc1ccc(O)cc1)NC(=O)[C@@H](CCC(=O)O)NC(=O)[C@@H](NC(=O)[C@H](Cc1ccccc1)NC(=O)[C@@H](NC(=O)C(C)(C)NC(=O)[C@H](CCC(N)=O)NC(=O)[C@H](C)NC(=O)[C@H](CCCCNC(=O)COCCOCCNC(=O)COCCOCCNC(=O)CC[C@H](NC(=O)CC[C@H](NC(=O)CCCCCCCCCCCCCCCCCCC(=O)O)C(=O)O)C(=O)O)NC(=O)[C@H](CCC(=O)O)NC(=O)[C@H](CC(=O)O)NC(=O)[C@H](CC(C)C)NC(=O)[C@](C)(Cc1ccccc1)NC(=O)[C@@H](NC(=O)[C@H](CO)NC(=O)[C@H](Cc1c[nH]cn1)NC(=O)[C@H](CC(=O)O)NC(=O)[C@H](CO)NC(=O)[C@@H](NC(=O)[C@](C)(Cc1ccccc1F)NC(=O)[C@@H](NC(=O)CNC(=O)[C@H](CCC(=O)O)NC(=O)C(C)(C)NC(=O)[C@@H](N)Cc1ccc(O)cc1)[C@@H](C)O)[C@@H](C)O)[C@@H](C)CC)[C@@H](C)O)[C@@H](C)CC)C(=O)N[C@@H](CCC(=O)O)C(=O)NCC(=O)NCC(=O)N1CCC[C@H]1C(=O)N[C@@H](CO)C(=O)N[C@@H](CO)C(=O)NCC(N)=O

Assays:
[1] = biological target: human GLP-1 receptor (GLP-1R) (human, UniProt P43220 24-463); experiment: cell-based or functional assay
[2] = biological target: T1, human gastric inhibitory peptide …; experiment: cell-based or functional assay

Row | Binder | hGLP1R cAMP EC50 ratio [1] | hGLP1R cAMP Rel EC50 [1] [nM] | hGIPR cAMP EC50 ratio [2] | hGIPR cAMP Rel EC50 [2] [nM]
1 | B1 | 1.23 | 0.0393 | 5.9 | 0.0266
2 | B2 | 0.176 | 0.33 | 0.039 | 4.6
3 | B3 | 0.00161 | 36 | 0.0393 | 4.56
4 | B4 | 1.54 | 0.0316 | 1.29 | 0.121
5 | B5 | 1.24 | 0.0461 | 0.00712 | 21
6 | B6 | 0.00373 | 15.6 | 0.0581 | 3.09
7 | B7 | 0.501 | 0.0904 | 1.7 | 0.0634
8 | B8 | 0.484 | 0.0915 | 2.57 | 0.0504
9 | B9 | 0.0121 | 4.8 | 0.706 | 0.254
